Results from patent US20080075726A1 (VACCINEX, published 2008).

T1: recombinant rat IL-6 (rat, UniProt P20607 25-211)
T1 sequence (looked up): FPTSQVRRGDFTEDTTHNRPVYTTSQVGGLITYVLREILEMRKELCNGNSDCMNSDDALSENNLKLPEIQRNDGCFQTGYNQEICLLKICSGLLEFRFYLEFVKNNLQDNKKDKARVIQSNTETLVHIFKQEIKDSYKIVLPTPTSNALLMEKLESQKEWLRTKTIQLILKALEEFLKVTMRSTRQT

T2: recombinant murine IL-6 (murine, UniProt P08505 25-211)
T2 sequence (looked up): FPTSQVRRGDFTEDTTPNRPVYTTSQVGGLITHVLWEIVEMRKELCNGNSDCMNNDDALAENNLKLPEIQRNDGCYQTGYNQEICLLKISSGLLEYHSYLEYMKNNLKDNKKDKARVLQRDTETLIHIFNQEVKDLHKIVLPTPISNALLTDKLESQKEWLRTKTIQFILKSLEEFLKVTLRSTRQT


Tests used:
recombinant human IL-6 [1] = biological target: T3, recombinant human IL-6 (human, UniProt P05231 30-212, limits assumed); test: competition ELISA, rhIL-6 in solution against captured IL-6
T3 construct: also called rhIL6; human recombinant IL-6
Protocol: (§1) Briefly, plates were coated with 2 μg/ml of mBE4 capture antibody in coating buffer, 100 μl per well. The plates were incubated overnight. Next, the plates were washed 3 times and tapped dry. The plates were then blocked with 200 μl per well of Assay Diluent or 10% FBS in PBS and incubated for 2 hours. […] The reaction was left at RT for 3-4 hours. […] Next, the plates were washed 3 times and tapped dry. […] The plates were incubated for 1-2 hours. The plates were washed 3 times and tapped dry. […] The plates were incubated at RT for 2 hours. (Therefore, any unbound mAb at this point will be measured by ELISA). Plates were then washed 5 times and tapped dry. 100 μl of detection Ab goat anti-human IgG F(ab)′2-HRP (Jackson lab) was added at 1:20,000 dilutions or 1:40,000 dilutions (depending on lot) and the plates were incubated for 1-2 hours. The plates were washed 7 times and tapped dry. Next, the Developer Substrate (equal parts of each reagent in the kit) was pre-mixed and allowed to warm to room temperature before use. Then 100 μl of Developer was added to each well. The plates were allowed to develop for 15 minutes un-sealed in a drawer in the dark. Finally, developing was stopped by adding 100 μl of 2N H₂SO₄ to each well and plates were read as Endpoint at 450 nm-[…].

recombinant human IL-6 [2] = biological target: T3, recombinant human IL-6; test: Biacore 2000, mAb captured on anti-human IgG CM5 chip, human IL-6 40-1.25 nM injected
Protocol: (§2) IC50 ELISA was performed as described above. Affinity analysis by Biacore was performed according to manufacturer protocols using HBS-EP buffer (Biacore AB).

recombinant human IL-6 [3] = biological target: T3, recombinant human IL-6; test: competition ELISA, rhIL-6 in solution against captured IL-6 (Affinity (nM) by IC50 ELISA)
Protocol: as §1, §2

recombinant rat IL-6 = biological target: T1, recombinant rat IL-6; test: ELISA on coated rat IL-6; human mAbs detected with rabbit anti-human IgG-HRP; series 100, 50, 25, 12.5 ng/ml (antibody by paragraph 42; headed mIL-6 (ng/ml) on the sheet)
Protocol: (§3) For sample “0,” no antibody was added. […] Each column represents a mean of two experiments +/− standard deviation.
(§4) For experiments using human monoclonal antibodies, IgG1 Kappa (human myeloma IgG1; Sigma-Aldrich Co.) mAb was used as a control. Rabbit anti-human IgG-HRP (Dako) was added at a dilution of 1/10,000 at 100 μl/well for detection of mAbs. […] For pAbs, Streptavidin-HRP (Prozyme) was added for detection at 100 μl/well. Antibodies were applied at concentrations of 12.5, 25, 50, and 100 ng/ml.

recombinant murine IL-6 = biological target: T2, recombinant murine IL-6; test: ELISA on coated murine IL-6; human mAbs detected with rabbit anti-human IgG-HRP; series 100, 50, 25, 12.5 ng/ml (antibody by paragraph 42; headed mIL-6 (ng/ml) on the sheet)
Protocol: as §3, §4

recombinant human IL-6 [4] = biological target: T3, recombinant human IL-6; test: flow cytometry blocking assay: biotinylated rhIL-6 (12 ng/ml on the sheet; 12.5 ng/ml in paragraph 183) pre-incubated with the mAb, then U266 cells bearing IL-6 receptor added; cell-bound IL-6 shown with streptavidin-PE; readout % inhibition
Protocol: FcR-blocked U266 cells (about 250,000 cells) were then added and co-incubated for another 30 min on ice. […] After washing, the cells were analyzed by flow cytometry.

IC50 (recombinant human IL-6 [1]) [nM]	Kd (recombinant human IL-6 [2]) [nM]	IC50 (recombinant human IL-6 [3]) [nM]	binding result (recombinant rat IL-6)	IC50 (read off the curve) (recombinant human IL-6 [4]) [µg/mL]	Binder	binding result (recombinant murine IL-6)
6.2					mAb 265 (antibody, V domains shown) VH: QVTLKESGPALVKPTQTLTLTCTFSGFSLTTSGMCVSWIRQPPGKALEWLALIYWDDDKRYNPSLRSRLTITKDTSKNQVVLTMTNMDPVDTATYYCARSYDDYLYYALDYWGQGTLVT VL: DIQMTQSPSTLSASVGDRVTITCRASQSMSDYLNWYQQKPGKAPKLLIYSASGLQSGVPSRFSGSGSGTDFTLTIINLQPEDVAAYYCQQSFSFPLTFGPGTKLEIK	
0.047		0.047			mAb 1337 (antibody, V domains shown) VH: QVTLKESGPTLVKPTQTLTLTCSFSGFSLSTSGVGVGWVRQPPGKALEWLAFIWWDDDKYYSPSLESRLTITKDTSKNQVVLTMTNMDPVDTATYYCARSADDYLYYSFDTWGQGTLVT VL: DIQMTQSPSSLSAFVGDGVTMTCWASQSINDYLNWYHQRPGEAPELLVFAASNLQIGVPSRFRGSGSETYFTLTINSLQPEDSGTYFCQHGHSFPLTFGGGTKLEI	
0.031	0.072	0.031			mAb 1338 (antibody, V domains shown) VH: QVTLKESGPTLVKPTQTLTLTCSFSGFSLSTSGVGVGWVRQPPGKALEWLAFIWWDDDKYYSPSLESRLTITKDTSKNQVVLTMTNMDPVDTATYYCARSADDYLYYSFDTWGQGTLVT VL: DIQMTQSPSSLSAFVGDGVTMTCWASQSINDYLNWYHQRPGEAPELLVFAASNLQIGVPSRFRGSGSETYFTLTINSLQPEDSGTYFCQSGHSFPLTFGGGTKLEI	
0.028	0.093	0.028			mAb 1259 (antibody, V domains shown) VH: QVTLKESGPTLVKPTQTLTLTCSFSGFSLSTSGVGVGWVRQPPGKALEWLAFIWWDDDKYYSPSLESRLTITKDTSKNQVVLTMTNMDPVDTATYYCARSADDYLYYSFDTWGQGTLVT VL: DIQMTQSPSSLSAFVGDGVTMTCWASQSINDYLNWYHQRPGEAPELLVFAASNLQIGVPSRFRGSGSETYFTLTINSLQPEDSGTYFCQNGHSFPLTFGGGTKLEI	
0.028		0.028			mAb 1340 (antibody, V domains shown) VH: QVTLKESGPTLVKPTQTLTLTCSFSGFSLSTSGVGVGWVRQPPGKALEWLAFIWWDDDKYYSPSLESRLTITKDTSKNQVVLTMTNMDPVDTATYYCARSADDYLYYSFDTWGQGTLVT VL: DIQMTQSPSSLSAFVGDGVTMTCWASQSINDYLNWYHQRPGEAPELLVFAASNLQIGVPSRFRGSGSETYFTLTINSLQPEDSGTYFCQNGWSFPLTFGGGTKLEI	
0.07	0.13	0.033	no binding (tested: 100 ng/ml)		mAb 926 (antibody, human IgG1, kappa, V domains shown) VH: QVTLKESGPTLVKPTQTLTLTCSFSGFSLSTSGVGVGWVRQPPGKALEWLAFIFWDDDKYYSPSLESRLTITKDTSKNQVVLTMTNMDPVDTATYYCARSADDYLYYALDYWGQGTLVTVSS VL: DIQMTQSPSSLSAFVGDGVTMTCWASQSINDYLNWYHQRPGEAPELLVFAASNLQIGVPSRFRGSGSETYFTLTINSLQPEDSGTYFCQNGHSFPLTFGGGTKLEIKR	no binding (tested: 100 ng/ml (Ab: 0.1 µg/ml in the title))
11.5					mAb 297 (antibody, V domains shown) VH: QVTLKESGPTLVKPTQTLTLTCTFSGFSLSTSGVAVGWIRQPPGKALEWLALIFWDDDKHYSPSLKSRLTITKDTSKNQVVLTMTNMDPVDTATYYCARSYDDYLYYALDYWGQGTLVTVSS VL: DIQMTQSPSSLSASVGDSVTITCRASQTISDFLNWYQQKPGKAPKLLIHASSNLQSGVPSRFSGSGSGTDFTLTISDLQPEDFATYSCQQTYSTLGTFGQGTRLE	
				~0.02	murine mAb B-E8 (antibody, V domains shown, Biotinylated in FIG. 16., Murine anti-IL-6 antibody from which the human mAbs were derived; also called Elsilimomab) VH: QVTLKESGPGILKPSQTLSLTCSFSGFSLSTSGMGVGWIRQPSGKGLEWLAHIWWDDDKYYNPSLKSQLTISKDTSRNQVFLKITSVDTADTATYYCARSYDDYLYYALDYWGQGTSVTVSS VL: DIVMTQSPATLSVTPGDRVSLSCRASQSISDYLHWYQQKSHESPRLLIKSVSQSISGIPSRFSGSGSGSDFTLSINSVEPEDVGVYYCQNGHSFPLTFGAGTKLELK	

Further lines, the binder ahead of its results:

Binder	IC50 (recombinant human IL-6 [1]) [nM]	Kd (recombinant human IL-6 [2]) [nM]	IC50 (recombinant human IL-6 [3]) [nM]	binding result (recombinant rat IL-6)	IC50 (read off the curve) (recombinant human IL-6 [4]) [µg/mL]	binding result (recombinant murine IL-6)
mAb 184 (antibody, V domains shown) VH: QVTLKESGPALVKPTQTLTLTCTFSGFSLTTSGMCVSWIRQPPGKALEWLALIYWDDDKRYNPSLRSRLTITKDTSKNQVVLTMTNMDPVDTATYYCARSYDDYLYYALDYWGQGTLVT VL: DIQMTQSPSSLSASVGDSVTVTCRASQKMRTYLHWYQQKPGKAPKLLIYDVSFLQNGVPSRFSGRASGTEFTLTISDLQPEDFATYYCQQSYDTPLTFGQGTKLEIK	2.4					
mAb 182 (antibody, V domains shown) VH: QVTLKESGPALVKPTQTLTLTCTFSGFSLTTSGMCVSWIRQPPGKALEWLALIYWDDDKRYNPSLRSRLTITKDTSKNQVVLTMTNMDPVDTATYYCARSYDDYLYYALDYWGQGTLVT VL: DIQMTQSPSSLSASVGDRVTITCRASQSISTYLNWYQQKLGKAPKLLIYAASSLQSGVPSRFSGSGSGTDFTLTISSLQPEDLATYYCQQSYRPLTFGGGTKLEIK	6.3					
mAb 183 (antibody, V domains shown) VH: QVTLKESGPALVKPTQTLTLTCTFSGFSLTTSGMCVSWIRQPPGKALEWLALIYWDDDKRYNPSLRSRLTITKDTSKNQVVLTMTNMDPVDTATYYCARSYDDYLYYALDYWGQGTLVT VL: DIQMTQSPSSLSASVGDSVTITCRASQSISIYLNWYQQKPGKAPDLLIYATSTLQSGVPSRFSGRGSGTHFTLTIDSLQPEDFATYYCQQTYRNLFTFGQGTKLE	1.75					
mAb 416 (antibody, V domains shown) VH: QVTLKESGPTLVKPTQTLTLTCSFSGFSLSTSGVGVGWVRQPPGKALEWLAFIFWDDDKYYSPSLESRLTITKDTSKNQVVLTMTNMDPVDTATYYCARSYDDYLYYALDYWGQGTLVT VL: DIQMTQSPSSLSAFVGDGVTMTCWASQSINDYLNWYHQRPGEAPELLVFAASNLQIGVPSRFRGSGSETYFTLTINSLQPEDSGTYFCQNGHSFPLTFGGGTKLEI	0.6	0.3	0.056			
mAb 88 (chimeric B-E8 control antibody) (antibody, V domains shown, Biotinylated in FIG. 16., Chimeric form of murine B-E8; also called control mAb 88) VH: QVTLKESGPGILKPSQTLSLTCSFSGFSLSTSGMGVGWIRQPSGKGLEWLAHIWWDDDKYYNPSLKSQLTISKDTSRNQVFLKITSVDTADTATYYCARSYDDYLYYALDYWGQGTSVTVSS VL: DIVMTQSPATLSVTPGDRVSLSCRASQSISDYLHWYQQKSHESPRLLIKSVSQSISGIPSRFSGSGSGSDFTLSINSVEPEDVGVYYCQNGHSFPLTFGAGTKLELK	0.5	0.02	0.01	no binding (tested: 100 ng/ml)	~0.02	no binding (tested: 100 ng/ml (Ab: 0.1 µg/ml in the title))
